These results are taken from publication PMC10501992, “How Pol α-primase is targeted to replisomes to prime eukaryotic DNA replication” (Molecular Cell, 2023).

Assay in all cases: cryo-EM structure; human replisome: 150 nM CMG on fork DNA (60 nt or 15 nt 5′ flap) with 1.5-fold molar excess of AND-1, TIMELESS-TIPIN, CLASPIN and Pol α-primase; 25 mM HEPES-NaOH pH 7.6, 150 mM NaOAc, 0.5 mM TCEP, 500 μM AMP-PNP, 10 mM Mg(OAc)2, on ice; 10-30% glycerol gradient with glutaraldehyde and BS3 cross-linkers
Common to all, as to conditions: both partners purified

In assay [1] the target is T1, human CMG (CDC45-MCM-GINS) replicative helicase (human, UniProt O75419 1-566; P49736 1-904; P25205 1-808; P33991 1-863; P33992 1-734; Q14566 …).
T1 construct: CDC45, human; MCM2, human; MCM3, human; MCM4, human; MCM5, human; MCM6, human; MCM7, human; PSF1, subunit of GINS, human; PSF2, subunit of GINS, human; PSF3, subunit of GINS, human; SLD5, subunit of GINS, human; the subunits are named in the methods for the MCM3-4A form, which was made as the wild type; copies: + + + + + + + + + +

Assay [2] has as its target T2, POLA1 (human Pol α catalytic subunit) (human, UniProt P09884 1-1462).
T2 construct: POLA1, human; modelled residues 1279-1445 and 1448-1458 (CTD); stood in the assay as a subunit of m18; also called POLA1CTD; POLA1_(exo-cat)
T2 sequence: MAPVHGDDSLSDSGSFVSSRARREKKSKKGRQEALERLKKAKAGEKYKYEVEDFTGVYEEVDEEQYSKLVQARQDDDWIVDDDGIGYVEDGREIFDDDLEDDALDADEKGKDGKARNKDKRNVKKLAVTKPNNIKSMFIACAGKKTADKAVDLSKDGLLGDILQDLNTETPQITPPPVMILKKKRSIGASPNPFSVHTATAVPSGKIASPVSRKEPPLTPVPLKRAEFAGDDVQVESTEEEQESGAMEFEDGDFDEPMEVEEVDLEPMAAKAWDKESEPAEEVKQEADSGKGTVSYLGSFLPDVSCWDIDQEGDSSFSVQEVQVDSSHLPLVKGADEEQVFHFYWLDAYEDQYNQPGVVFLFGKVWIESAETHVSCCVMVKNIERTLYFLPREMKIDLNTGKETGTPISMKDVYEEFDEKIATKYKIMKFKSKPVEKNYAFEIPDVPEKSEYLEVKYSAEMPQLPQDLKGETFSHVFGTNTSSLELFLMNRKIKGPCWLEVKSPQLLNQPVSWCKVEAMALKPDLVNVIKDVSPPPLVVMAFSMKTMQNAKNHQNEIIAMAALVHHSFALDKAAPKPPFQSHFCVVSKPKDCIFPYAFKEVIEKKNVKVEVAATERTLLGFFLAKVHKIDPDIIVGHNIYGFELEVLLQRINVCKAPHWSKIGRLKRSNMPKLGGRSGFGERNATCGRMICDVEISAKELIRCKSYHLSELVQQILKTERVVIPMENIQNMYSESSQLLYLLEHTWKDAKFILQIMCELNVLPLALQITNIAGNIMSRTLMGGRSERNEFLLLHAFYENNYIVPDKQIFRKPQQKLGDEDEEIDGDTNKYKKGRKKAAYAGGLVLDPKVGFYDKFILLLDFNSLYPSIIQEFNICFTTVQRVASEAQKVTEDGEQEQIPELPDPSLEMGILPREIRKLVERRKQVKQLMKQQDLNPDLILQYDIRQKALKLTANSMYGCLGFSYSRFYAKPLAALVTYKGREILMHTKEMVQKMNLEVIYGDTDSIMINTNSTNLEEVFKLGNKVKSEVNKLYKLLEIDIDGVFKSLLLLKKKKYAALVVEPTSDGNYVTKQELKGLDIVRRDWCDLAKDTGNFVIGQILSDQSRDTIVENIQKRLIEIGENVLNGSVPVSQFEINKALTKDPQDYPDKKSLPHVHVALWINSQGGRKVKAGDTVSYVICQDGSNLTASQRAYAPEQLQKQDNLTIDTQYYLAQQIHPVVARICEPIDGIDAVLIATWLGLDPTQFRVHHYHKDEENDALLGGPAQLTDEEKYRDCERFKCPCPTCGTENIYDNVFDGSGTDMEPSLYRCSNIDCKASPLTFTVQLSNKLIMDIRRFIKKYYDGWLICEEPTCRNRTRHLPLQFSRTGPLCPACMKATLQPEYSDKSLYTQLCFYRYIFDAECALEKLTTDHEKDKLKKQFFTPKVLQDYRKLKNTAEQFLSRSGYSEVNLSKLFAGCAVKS

Assay [3] concerns the target T3, PRIM2 (human primase accessory subunit) (human, UniProt P49643 1-509).
T3 construct: PRIM2, human; modelled residues 1-5 (N terminus) and 17-252 (NTD); stood in the assay as a subunit of m18; also called PRIM2NTD; PRIM2_(Nterm)
T3 sequence: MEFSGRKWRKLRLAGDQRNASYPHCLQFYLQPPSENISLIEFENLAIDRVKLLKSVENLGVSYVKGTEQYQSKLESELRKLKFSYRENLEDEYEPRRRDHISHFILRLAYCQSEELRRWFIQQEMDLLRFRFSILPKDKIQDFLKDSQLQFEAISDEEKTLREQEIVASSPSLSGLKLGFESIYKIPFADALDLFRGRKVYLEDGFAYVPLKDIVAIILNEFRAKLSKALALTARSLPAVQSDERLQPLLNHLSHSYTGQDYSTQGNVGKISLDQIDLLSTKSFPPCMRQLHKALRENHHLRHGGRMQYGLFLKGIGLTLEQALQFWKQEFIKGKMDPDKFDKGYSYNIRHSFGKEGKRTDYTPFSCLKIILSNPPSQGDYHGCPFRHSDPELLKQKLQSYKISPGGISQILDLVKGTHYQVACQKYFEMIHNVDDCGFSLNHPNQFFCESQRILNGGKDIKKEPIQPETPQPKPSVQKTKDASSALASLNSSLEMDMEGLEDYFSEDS

B1: TIMELESS-TIPIN (human) (complex)
chain 1: MDLHMMNCELLATCSALGYLEGDTYHKEPDCLESVKDLIRYLRHEDETRDVRQQLGAAQILQSDLLPILTQHHQDKPLFDAVIRLMVNLTQPALLCFGNLPKEPSFRHHFLQVLTYLQAYKEAFASEKAFGVLSETLYELLQLGWEERQEEDNLLIERILLLVRNILHVPADLDQEKKIDDDASAHDQLLWAIHLSGLDDLLLFLASSSAEEQWSLHVLEIVSLMFRDQNPEQLAGVGQGRLAQERSADFAELEVLRQREMAEKKTRALQRGNRHSRFGGSYIVQGLKSIGERDLIFHKGLHNLRNYSSDLGKQPKKVPKRRQAARELSIQRRSALNVRLFLRDFCSEFLENCYNRLMGSVKDHLLREKAQQHDETYYMWALAFFMAFNRAASFRPGLVSETLSVRTFHFIEQNLTNYYEMMLTDRKEAASWARRMHLALKAYQELLATVNEMDISPDEAVRESSRIIKNNIFYVMEYRELFLALFRKFDERCQPRSFLRDLVETTHLFLKMLERFCRSRGNLVVQNKQKKRRKKKKKVLDQAIVSGNVPSSPEEVEAVWPALAEQLQCCAQNSELSMDSVVPFDAASEVPVEEQRAEAMVRIQDCLLAGQAPQALTLLRSAREVWPEGDVFGSQDISPEEEIQLLKQILSAPLPRQQGPEERGAEEEEEEEEEEEEELQVVQVSEKEFNFLDYLKRFACSTVVRAYVLLLRSYQQNSAHTNHCIVKMLHRLAHDLKMEALLFQLSVFCLFNRLLSDPAAGAYKELVTFAKYILGKFFALAAVNQKAFVELLFWKNTAVVREMTEGYGSLDDRSSSRRAPTWSPEEEAHLRELYLANKDVEGQDVVEAILAHLNTVPRTRKQIIHHLVQMGLADSVKDFQRKGTHIVLWTGDQELELQRLFEEFRDSDDVLGHIMKNITAKRSRARIVDKLLALGLVAERRELYKKRQKKLASSILPNGAESLKDFCQEDLEEEENLPEEDSEEEEEGGSEAEQVQGSLVLSNENLGQSLHQEGFSIPLLWLQNCLIRAADDREEDGCSQAVPLVPLTEENEEAMENEQFQQLLRKLGVRPPASGQETFWRIPAKLSPTQLRRAAASLSQPEEEQKLQPELQPKVPGEQGSDEEHCKEHRAQALRALLLAHKKKAGLASPEEEDAVGKEPLKAAPKKRQLLDSDEEQEEDEGRNRAPELGAPGIQKKKRYQIEDDEDD
chain 2: MLEPQENGVIDLPDYEHVEDETFPPFPPPASPERQDGEGTEPDEESGNGAPVRVPPKRTVKRNIPKLDAQRLISERGLPALRHVFDKAKFKGKGHEAEDLKMLIRHMEHWAHRLFPKLQFEDFIDRVEYLGSKKEVQTCLKRIRLDLPILHEDFVSNNDEVAENNEHDVTSTELDPFLTNLSESEMFASELSRSLTEEQQQRIERNKQLALERRQAKLLSNSQTLGNDMLMNTPRAHTVEEVNTDEDQKEESNGLNEDILDNPCNDAIANTLNEEETLLDQSFKNVQQQLDATSRNITEAR
notes: TIPIN, human; source: purified (Strep-Tactin XT resin, TEV protease, HiTrap Q HP, Superdex 200)
As to B1, the binding result in assay [1] is “binds”.

B2: POLA2 (human Pol α accessory subunit) (natural protein)
chain: MSASAQQLAEELQIFGLDCEEALIEKLVELCVQYGQNEEGMVGELIAFCTSTHKVGLTSEILNSFEHEFLSKRLSKARHSTCKDSGHAGARDIVSIQELIEVEEEEEILLNSYTTPSKGSQKRAISTPETPLTKRSVSTRSPHQLLSPSSFSPSATPSQKYNSRSNRGEVVTSFGLAQGVSWSGRGGAGNISLKVLGCPEALTGSYKSMFQKLPDIREVLTCKIEELGSELKEHYKIEAFTPLLAPAQEPVTLLGQIGCDSNGKLNNKSVILEGDREHSSGAQIPVDLSELKEYSLFPGQVVIMEGINTTGRKLVATKLYEGVPLPFYQPTEEDADFEQSMVLVACGPYTTSDSITYDPLLDLIAVINHDRPDVCILFGPFLDAKHEQVENCLLTSPFEDIFKQCLRTIIEGTRSSGSHLVFVPSLRDVHHEPVYPQPPFSYSDLSREDKKQVQFVSEPCSLSINGVIFGLTSTDLLFHLGAEEISSSSGTSDRFSRILKHILTQRSYYPLYPPQEDMAIDYESFYVYAQLPVTPDVLIIPSELRYFVKDVLGCVCVNPGRLTKGQVGGTFARLYLRRPAADGAERQSPCIAVQVVRI
notes: POLA2, human; stood in the assay as a subunit of m18
Consider B2, for which the binding result in assay [2] is “binds”.

B3: PRIM1 (human primase catalytic subunit) (natural protein)
chain: METFDPTELPELLKLYYRRLFPYSQYYRWLNYGGVIKNYFQHREFSFTLKDDIYIRYQSFNNQSDLEKEMQKMNPYKIDIGAVYSHRPNQHNTVKLGAFQAQEKELVFDIDMTDYDDVRRCCSSADICPKCWTLMTMAIRIIDRALKEDFGFKHRLWVYSGRRGVHCWVCDESVRKLSSAVRSGIVEYLSLVKGGQDVKKKVHLSEKIHPFIRKSINIIKKYFEEYALVNQDILENKESWDKILALVPETIHDELQQSFQKSHNSLQRWEHLKKVASRYQNNIKNDKYGPWLEWEIMLQYCFPRLDINVSKGINHLLKSPFSVHPKTGRISVPIDLQKVDQFDPFTVPTISFICRELDAISTNEEEKEENEAESDVKHRTRDYKKTSLAPYVKVFEHFLENLDKSRKGELLKKSDLQKDF
notes: PRIM1, human; modelled residues 9-349 and 386-408; stood in the assay as a subunit of m18
As for B3, in assay [3], the binding result was “binds”.
